Test results published in patent US20080152587A1.

These substances were tested against mouse uPAR on the surface of NCTC L929 cells (mouse) (UniProt P35456) (assay: FACS, NCTC L929 mouse cells, secondary alone).
Sequence of mouse uPAR on the surface of NCTC L929 cells (mouse) (P35456 24-298): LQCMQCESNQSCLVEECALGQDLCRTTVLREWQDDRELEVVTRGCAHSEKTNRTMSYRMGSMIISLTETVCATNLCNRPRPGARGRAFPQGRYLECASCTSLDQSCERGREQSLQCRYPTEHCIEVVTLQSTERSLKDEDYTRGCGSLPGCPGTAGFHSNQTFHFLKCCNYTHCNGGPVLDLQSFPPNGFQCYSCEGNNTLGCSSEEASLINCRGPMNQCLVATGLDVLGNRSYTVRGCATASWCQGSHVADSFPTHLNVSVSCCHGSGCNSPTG

| Substance | X Geo mean |
| --- | --- |
| secondary antibody alone for mouse antibodies | 3.22 |
| secondary antibody alone for rat antibodies | 13.1 |
| secondary antibody alone, Cy5-labeled goat anti-human IgG Fc | 7.63 |
